The record followed here is patent US20240327535A1 (EISAI R AND D MANAGEMENT, published 2024).

Where a chain is given by its changes, count along the chain named.

T1: extracellular domain of human BCMA (human, UniProt Q02223 1-54)
T1 construct: amine-linked to Octet AR2G tips; also called hsBCMA; BCMA (human)
T1 sequence: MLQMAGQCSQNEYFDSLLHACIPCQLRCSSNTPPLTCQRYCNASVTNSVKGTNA

B1: AB200-(2Vk35)_R2-VH-v62 (Fab, V domains shown)
VH: QVQLVQSGAEVKKPGSSVKVSCKASGGTFSNYWIHWVRQAPGQGLEWMGGTYRIHSDTYYNEKFKSRVTITADKSTSTAYMELSSLRSEDTAVYYCARGAIYHGYDVIENWGQGTLVTVSS
VL: DIQMTQSPSSLSASVGDRVTITCRASQSISSYINWYQQKPGKAPKLLIYATSNLQSGVPSRFSGSGSGTDFTLTISSLQPEDFATYYCQQYRRIPWTFGQGTKLEIKR
B2: AB200-(2Vk35)_R2-VH-v63 (Fab, V domains shown)
VH: B1 VH with G50A, D57T, Y59N, E62Q, K74E, I101V, E109D
VL: B1 VL
B3: AB200-(2Vk35)_R2-VH-v76 (Fab, V domains shown)
VH: B1 VH with G50A, H55Q, Y105F, E109D
VL: B1 VL
B4: AB200-(2Vk35)_R2-VH-v69 (Fab, V domains shown)
VH: B1 VH with G50A, H55Q, Y59N, E62Q, I101V, E109D
VL: B1 VL
B5: AB200-(2Vk44)_R2-VH-v22 (Fab, V domains shown)
VH: B1 VH with I54S, H55Q, E62Q, I101V, E109D
VL: B1 VL with S56I, I94L, T97S
B6: AB200-(2Vk44)_R2-VH-v35 (Fab, V domains shown)
VH: B1 VH with G50A, I54S, N61A, E62Q, F64Y
VL: B1 VL with S56I, I94L, T97S
B7: AB200-(2Vk44)_R2-VH-v54 (Fab, V domains shown)
VH: B1 VH with T28S, G50A, Y59N
VL: B1 VL with S56I, I94L, T97S
B8: AB200-(2Vk44)_R2-VH-v44 (Fab, V domains shown)
VH: B1 VH with S30T, G50A, Y59N, N61A, E62Q
VL: B1 VL with S56I, I94L, T97S
B9: AB200-(2Vk44)_R2-VH-v1 (Fab, V domains shown)
VH: B1 VH with S30T, I54S, E62Q, F64Y
VL: B1 VL with S56I, I94L, T97S
B10: AB200-(2Vk44)_R2-VH-v28 (Fab, V domains shown)
VH: B1 VH with G50A, I54S, D57T, E62Q, F64Y, Y105F, E109D
VL: B1 VL with S56I, I94L, T97S
B11: AB200-(2Vk44)_R2-VH-v7 (Fab, V domains shown)
VH: B1 VH with F29Y, G50A, I54S, D57T, N61A, E62Q, Y105F, E109D
VL: B1 VL with S56I, I94L, T97S
B12: AB200-(2Vk44)_R2-VH-v24 (Fab, V domains shown)
VH: B1 VH with I54S, Y102F, E109D
VL: B1 VL with S56I, I94L, T97S
B13: AB200-(2Vk44)_R2-VH-v53 (Fab, V domains shown)
VH: B1 VH with T28S, G50A, Y59N, E62Q, F64Y, Y102F, E109D
VL: B1 VL with S56I, I94L, T97S
B14: AB200-(2Vk44)_R2-VH-v14 (Fab, V domains shown)
VH: B1 VH with T28S, G50A, I54S, D57T, I101V, E109D
VL: B1 VL with S56I, I94L, T97S
B15: AB200-(2Vk44)_R2-VH-v41 (Fab, V domains shown)
VH: B1 VH with S30T, Y105F, E109D
VL: B1 VL with S56I, I94L, T97S

In the first test the target is T2, extracellular domain of rhesus monkey BCMA (rhesus monkey, UniProt F7FFA0 1-53).
T2 construct: extracellular domain; also called RhBCMA
T2 sequence (F7FFA0 entry or part of it): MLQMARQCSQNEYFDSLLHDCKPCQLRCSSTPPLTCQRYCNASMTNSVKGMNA
Briefly: Octet BLI; Fab 200 nM. (In general: In BLI a coated tip is dipped into the sample, and binding shifts an interference pattern.)
Regarding B1, the affinity, expressed as Kd, was 49 nM.

Turning to B2, the Kd (usually the equilibrium constant for the complex coming apart) turned out to be 9.56 nM.

As to B3, the Kd was 8.46 nM.

The molecule B4 showed a Kd of 46.6 nM.

The target in the next test is T1, extracellular domain of human BCMA. The test is described as follows: Octet BLI; Fab 200 nM.
For B1, binding was characterised by a dissociation constant (Kd) of 14.5 nM.

B2 had a Kd of 27.1 nM.

In turn, B3 yielded a Kd of 1.93 nM.

For the molecule B4, the Kd came to 16.2 nM.

The next test concerns the target T2, extracellular domain of rhesus monkey …. Briefly: Octet BLI; Fab 200 nM. This is another data set of the same source.
B5 yielded a Kd of 11.1 nM.

In the case of B6, the Kd stood at 52.8 nM.

Molecule B7 displayed a Kd of 151 nM.

In the case of B8, binding was characterised by a dissociation constant (Kd) of 290 nM.

Consider B9, for which the Kd turned out to be 40 nM.

B10 yielded a Kd of 20.9 nM.

Turning to B11, the Kd came to 71.7 nM.

Turning to B12, the Kd is 20.8 nM.

For the molecule B13, the Kd was determined as 103 nM.

B14 registered a Kd of 16.9 nM.

Molecule B15 gave a Kd of 12.6 nM.

For a further test, the target named is T1, extracellular domain of human BCMA. The test is described as follows: Octet BLI; Fab 200 nM. The source holds these as a separate data set.
For B5, the Kd worked out at 2.31 nM.

For B6, the affinity, expressed as Kd, was 16.2 nM.

Regarding B7, the Kd was 68.8 nM.

In turn, B8 returned an equilibrium dissociation constant (Kd) of 86.4 nM.

As for B9, the Kd is 11.8 nM.

In the case of B10, the Kd is 10.9 nM.

Consider B11, for which binding was put at a Kd of 40.6 nM.

Molecule B12 showed a Kd of 6.44 nM.

Take B13: the Kd is 52.5 nM.

Molecule B14 yielded a Kd of 7.55 nM.

The molecule B15 yielded a Kd of 3.73 nM.
